This data set deals with the molecule itself. Description: SEC.

Where no end group is shown, it is not given here. MBP = not defined here

As to {6xHis-MBP}-SCILLYVVFQKLSARLRALR (domain or fragment, reading uncertain) [6xHis-MBP-selenos 40–59], the binding result is reported as “binds”.
